# Experimental data reported in article PMC4145800.
# What was measured:
# [1] = target: wild-type (polymerization-competent) yeast αβ-tubulin (yeast) (UniProt P09733); experiment: AUC; sedimentation velocity; seven concentrations of TOG1 or TOG2 (44 nM-4.5 μM) titrated into 0.35 μM αβ-tubulin; 1:1 binding isotherm fitted; RB100 with 20 μM GTP, 20°C
# [2] = target: wild-type (polymerization-competent) yeast αβ-tubulin (yeast) (UniProt P09733); experiment: AUC; sedimentation velocity; TOG1-TOG2 or its mutants mixed with αβ-tubulin (∼5 molar equivalents of αβ-tubulin; seven concentrations of TOG1-TOG2 with 0.3 μM αβ-tubulin); two-site binding model; RB100 with 20 μM GTP, 20°C
substance,measurement,setting,value
"TOG1 domain from Stu2p, TOG1(1-317) (from UniProt P46675 1-317) (domain or fragment)",Kd,[1],70 nM
same,stoichiometry N,[1],1
TOG1-TOG2 of Stu2p with the mutation R519A (from UniProt P46675 1-560) (domain or fragment),stoichiometry N (αβ-tubulin per TOG1-TOG2),[2],1
TOG1-TOG2 of Stu2p with the mutation printed as W314A (from UniProt P46675 1-560) (domain or fragment),stoichiometry N (αβ-tubulin per TOG1-TOG2),[2],1
TOG1-TOG2(1-560) of Stu2p (from UniProt P46675 1-560) (domain or fragment),stoichiometry N (αβ-tubulins per TOG1-TOG2),[2],2
